Data: patent US20180346594A1

Key:
[1] = target: 16C3 antigen (human colorectal and pancreatic carcinoma-associated antigen, CPAA, recognized by the 16C3 antibody) (human); experiment: FACS, AsPC-1 cells, 5 uL
[2] = target: 16C3 antigen (human colorectal and pancreatic carcinoma-associated antigen, CPAA, recognized by the 16C3 antibody) (human); experiment: FACS, HT-29 colorectal cells
[3] = target: 16C3 antigen (human colorectal and pancreatic carcinoma-associated antigen, CPAA, recognized by the 16C3 antibody) (human); experiment: FACS, AsPC-1 pancreatic cells
[4] = target: 16C3 antigen (human colorectal and pancreatic carcinoma-associated antigen, CPAA, recognized by the 16C3 antibody) (human); experiment: FACS, LS174T colorectal cells
[5] = target: 16C3 antigen (human colorectal and pancreatic carcinoma-associated antigen, CPAA, recognized by the 16C3 antibody) (human); experiment: FACS, CFPAC-1 pancreatic cells
[6] = target: 16C3 antigen (human colorectal and pancreatic carcinoma-associated antigen, CPAA, recognized by the 16C3 antibody) (human); experiment: FACS, AsPC-1 cells, 1 ug antibody
[7] = target: 16C3 antigen (human colorectal and pancreatic carcinoma-associated antigen, CPAA, recognized by the 16C3 antibody) (human); experiment: FACS, AsPC-1 cells, 4 ng antibody
[8] = target: 16C3 antigen (human colorectal and pancreatic carcinoma-associated antigen, CPAA, recognized by the 16C3 antibody) (human); experiment: FACS, AsPC-1 cells, 20 ng antibody
[9] = target: 16C3 antigen (human colorectal and pancreatic carcinoma-associated antigen, CPAA, recognized by the 16C3 antibody) (human); experiment: FACS, AsPC-1 cells, 0.8 ng antibody
[10] = target: 16C3 antigen (human colorectal and pancreatic carcinoma-associated antigen, CPAA, recognized by the 16C3 antibody) (human); experiment: FACS, AsPC-1 cells, 100 ng antibody
[11] = target: 16C3 antigen (human colorectal and pancreatic carcinoma-associated antigen, CPAA, recognized by the 16C3 antibody) (human); experiment: FACS, AsPC-1 cells, secondary antibody only
[12] = target: 16C3 antigen (human colorectal and pancreatic carcinoma-associated antigen, CPAA, recognized by the 16C3 antibody) (human); experiment: FACS, LS174T cells, secondary antibody only
[13] = target: 16C3 antigen (human colorectal and pancreatic carcinoma-associated antigen, CPAA, recognized by the 16C3 antibody) (human); experiment: FACS, HT-29 colorectal cells, secondary antibody only
[14] = target: 16C3 antigen (human colorectal and pancreatic carcinoma-associated antigen, CPAA, recognized by the 16C3 antibody) (human); experiment: FACS, AsPC-1 pancreatic cells, secondary antibody only
[15] = target: 16C3 antigen (human colorectal and pancreatic carcinoma-associated antigen, CPAA, recognized by the 16C3 antibody) (human); experiment: FACS, LS174T colorectal cells, secondary antibody only
[16] = target: 16C3 antigen (human colorectal and pancreatic carcinoma-associated antigen, CPAA, recognized by the 16C3 antibody) (human); experiment: FACS, CFPAC-1 pancreatic cells, secondary antibody only
[17] = target: 16C3 antigen (human colorectal and pancreatic carcinoma-associated antigen, CPAA, recognized by the 16C3 antibody) (human); experiment: FACS, CFPAC-1 cells, secondary antibody only

In the case of “16C3 mAb (murine monoclonal antibody, IgG1 heavy chain, kappa light chain)”, the % AsPC-1 Cells Stained [1] is reported as 81.4%, the mfi [1] is reported as 34 mfi and the % Cell Staining [2] is reported as 91%. It also gave a mfi [2] of 78 mfi, a % Cell Staining [3] of 69.9% and a mfi [3] of 36 mfi. The % Cell Staining [4] was 40.6%, the mfi [4] was 59 mfi and the % Cell Staining [5] was 96.2%. The mfi [5] was 323 mfi, the % AsPC-1 Cells Stained [6] was 89.5% and the mfi [6] was 138 mfi. It also gave a % AsPC-1 tumor cell binding [7] of 4.26%, an MFI [7] of 52 MFI and a % AsPC-1 tumor cell binding [8] of 47.9%. It also gave an MFI [8] of 69 MFI, a % AsPC-1 tumor cell binding [9] of 1.28% and an MFI [9] of 615 MFI. It also gave a % AsPC-1 tumor cell binding [10] of 61.7% and an MFI [10] of 228 MFI.
In the case of “Goat anti-Mouse IgG-FITC control (fluorescein-labelled goat anti-mouse antibody, secondary reagent alone)”, the % AsPC-1 Cells Stained [11] is reported as 1.01%, the % AsPC-1 tumor cell binding [11] is reported as 1.55% and the MFI [11] is reported as 70 MFI. For the same substance, the mfi [11] was 8 mfi, the % LS174T tumor cell binding [12] was 1.63% and the MFI [12] was 43 MFI. It also gave a % Cell Staining [13] of 0.84%, a mfi [13] of 10 mfi and a % Cell Staining [14] of 2.68%. For the same substance, the mfi [14] was 30 mfi, the % Cell Staining [15] was 0.94% and the mfi [15] was 15 mfi. For the same substance, the % Cell Staining [16] was 0.83% and the mfi [16] was 14 mfi.
“Rabbit anti-Human IgG-FITC control (secondary reagent alone) (antibody)” was tested, and the % AsPC-1 tumor cell binding [11] was 2.05%, the MFI [11] was 59 MFI and the % binding to LS174T cells [12] was 3.49%. For the same substance, the mfi [12] was 33 mfi, the % binding to CFPAC-1 cells [17] was 2.1% and the mfi [17] was 20 mfi.
